Values of other authors in paper PMC4692369.

Biological target: Tyr57 (UniProt position 57, QIAAFYRQGLG)
Test: UV-vis
Conditions: apo enzyme

## Ketosteroid isomerase D40N (earlier construct without LVPR) (Pseudomonas putida; D40N)
  pKa: 6.3
